# Tested on: K4 kissing-loop RNA reporter
# Experiment: apparent KD of K4 kissing-loop reporter; higher = weaker reporter binding
# Settings: Eterna round: R107
# Description: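 RNA-MaP round R107: designed RNA switches with theophylline, tryptophan, arginine or FMN aptamers are transcribed on-chip within common flanks. They are titrated with a labelled K4 kissing-loop RNA reporter in RNA-MaP buffer (100 mM Tris pH 7.5, 80 mM KCl, 4 mM MgCl2), without ligand or with the indicated ligand. Median apparent KD per design.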
# [1] = input ligand: theophylline 20 uM
# [2] = input ligand: tryptophan 2.4 mM
# 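Note: bound reporter read as fluorescence of individual clusters on recovered sequencing chips by microscopy, with normalized cluster intensities fitted with a binding model.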
Sequence,apparent KD of K4 kissing-loop reporter (input ligand: FMN 200 uM) [nM],apparent KD of K4 kissing-loop reporter (input ligand: arginine 13.2 mM) [nM],apparent KD of K4 kissing-loop reporter (input ligand: none) [nM],apparent KD of K4 kissing-loop reporter [1] [nM],apparent KD of K4 kissing-loop reporter [2] [nM]
CAUACGCAUGGAGGAUAUGAGAUUACUCAUAUCAUUUAAUAUUCUCAGUGAUGUUGAGAUUUAGGCUCAGAAGGCCAUGUGUAUG [Ex FMN B 14],271,362,412,421,375
CAUACGCAUGGAGGAUAUGAGAUUACUCAUAUCAUUUAAUAUUCUCAGUGAUGUUGAGAUUUGGGCUCAGAAGGCCAUGUGUAUG [Ex FMN B 15],479,304,339,343,317
CAUACGCAUGGAGGAUAUGAGAUUUCUCAUAUUAUUUAAUAUUCUCAGUGAUGUUGAGAUUUAAACUCAGAAGGCCAUGUGUAUG [Ex FMN B 6],388,235,239,279,242
CAUGGACUUCCAGUGUAUCCAUGACUGGAUACCAGUCAGGAAACUGACCCUUGGCAGCCAGAACUGGAAGUGAUGUUUCCAGUAA [Design8],227,214,244,244,240
CAUGGGCCAGUGAUGUUGGCGCGCACGGGACGAGGACCGGUACGGCCGCCACUCGCUUUUGCUCUUAUCGGGAUAAGAAAACCGA [Enveerorle],453,134,567,309,635
CCAACAACGAGUGAUGUUCGUUGAUCUGAAGGAGCGUCAAUAAUGACAGGUAGGUCGCAGAUAAUUGGAUAUAGGGCAAUAGCUC [Same State Arginine A GF13],109,116,125,115,102
CCAGGACGAUGAGGAGGAUGAAUUACUGAAGGAGCGCAUAUGGUUGCAGGUAGGUCGCGGUGAACAAGUAUAGUGAUGUUAUACC [SSArgA.T],339,290,368,343,445
CCAUCGCUAUUCGAUACCAGCUACUUAGUGAUGUUAAGUUUAAAUCCACUGUAGGUGGAAAGCCCUUGGCAGCGAAUAGUGAUGG [Theophylline B K4 24],315,274,306,157,245
CCAUCGCUAUUCGAUACCAGCUACUUAGUGAUGUUAAGUUUAUAUCCACUGUAGGUGGAAAGCCCUUGGCAGCGAAUAGUGAUGG [Theophylline B K4 25],436,412,491,223,425
CCCUUAGACUCGGCCGCCACUCGUACCGAGAGCAUGCCACCCAUUAGUGAUGUUAAUUUGUCCUUGAGGACCGGGAGCCUAGGAA [theeternabot_exclusion_KL_Trp_B_44],941,789,980,986,822
CCGAAGAACCAGUGAUGUUGGUUGACUAGACAGGAUAUGAGCAACAUCAGAAGGGUCUGGCUUCGGGAGAGAGUCGCGCUGACCU [Anditebier],208,350,388,28.7,453
CCGAAGAACCAGUGAUGUUGGUUGACUAGACAGGAUAUGAGCAACAUCAGAAGGGUCUGGCUUCGGGAGUAGGUCGCGCUGACCC [Diarrebi],482,231,624,1260,231
CCGACUGCAGGAAGGAGCGGCGGUUGGAGUGAUGUUCCGGGUAGUGAUGUUACCAAGAUCCGCCAGGUAGGUCGCCUGUUGCUCG [Same State Arginine B GF11],134,117,129,122,120
CCGAGCCUGACGAAAGUCAGGCUCUGCGAGCGAGGACCGGUACGGCCGCCACUCGGUGCAGUGAUGUUGCAUGGCCGCAAGGCCG [#2 Exclusion - Tryptophan A Attempt #22 (HarryS)],156,223,240,261,312
CCGCUGUACUGCAUUAAGUGAUGUUUAGUGCAGGAUAUCUGGAAACAGAGAAGGGCAUGUACUCGACUUAGCCACUACAGCGGUU,221,123,142,119,129
CCUAUCUCAUACGAUACCAGUCAACGAGUGAUGUUCGAAUAAAUAAAUUUGCCAAAUAAUGACCCUUGGCAGCGUAUGGGAUAGG [Ex Theophylline B K4 15],299,313,329,302,247
CCUAUCUCAUACGAUACCAGUCAAUUAAAUUUUAUAAAUGCCAUCACCGAGUGAUGUUCGGACCCUUGGCAGCGUAUGGGAUAGG [Ex Theophylline B K4 2],222,175,198,310,187
CCUUCUCUUGAUAGUGAUGUUGUCGAGGACAAGGAUAUCAUCUCAAUGAGAAGGUGUCCUUGAUAACAUGGAGGUCUGAAACAGA [Omei KL FMN A Exc C v10],468,394,333,365,420
CGAAGAAAGGUAUGUGGGAUCUGCGCGUAACGAGGACCGGUACGGCCGCCACUCGACGUCGCAUACGGCCCAGUGAUGUUGGGUG [theeternabot_sameState_KL_Trp_A_14],74,55.9,75.4,74.9,53.4
CGAGUGAUGUUCGAAGAGUUGUUGAGCGAUACCAGCCAGGAAACUGGCCCUUGGCAGCGUAAUAAAUAAAUAAAUAAAUGAUCAC [whbob_Ex_Theo_A_th61],364,464,410,635,333
CGCAAGCAGCCAGUGAUGUUGGCCGCCUUGCGAGGACCGGUACGGCCGCCACUCGAAGGCGGCUACUGAUAAACCGUCUAACGGA [KL-XTryp-A9],112,96.3,105,95.4,274
CGCAGUGAUGUUGCGAAUAUAAUCACGGAAGGAGCGCGUGAAAACGCAGGUAGGUCGCCGUGUGGUAUGAUGGAAACAUCGUACC [Arginine A K4 12],222,207,243,206,191

Sequence,apparent KD of K4 kissing-loop reporter (input ligand: FMN 200 uM) [nM],apparent KD of K4 kissing-loop reporter (input ligand: arginine 13.2 mM) [nM],apparent KD of K4 kissing-loop reporter (input ligand: none) [nM],apparent KD of K4 kissing-loop reporter [1] [nM],apparent KD of K4 kissing-loop reporter [2] [nM]
CGCAGUGAUGUUGCGAGUUUAUUCAGGGAAGGAGCGCCACAGAUGGCAGGUAGGUCGCCCACGCAGUGAUGUUGUGUAUUCGGGU [Exclusion Arginine A GF 3],141,128,127,128,116
CGCAGUGAUGUUGCUUAUAUUCUUGGUUAACGAGGACCGGUACGGCCGCCACUCGAUUUCUAACUAUUCCAGUGUUAAUUUGAGU [JR_ExcTryptoA_Sub006],444,488,502,564,306
CGCGCCCAGCCGGAUACCAGUGACCCGCUGGGAACCGCGGGCCCAGAGUGAUGUUCGGGACACCCUUGGCAGCCGCCUGGGCGGC [#2 Same State - Theophylline B Attempt #9 (HarryS)],1370,229,999,717,766
CGCGCGCGCGCGCGCGCGCGCGCGAAUGAUACCAGUAUAUAAGAAUACCCUUGGCAGCAUAAGAAAGAUAUAGUGAUGUUGUAUA [SSTheophA.B],285,150,269,422,231
CGCGUGGGUUUGAGAGGGUUUGCGCGAAGUGAGGAUAUUUAGGGAGAAAGAAGGCACUAUAAAAUAUAGUGAUGUUAUAUAAGGG [SSFMNA.J],877,186,170,242,126
CGUACGGUUUCUUUCUUUCCGUACGAGUGCCGAGGACCGGUACGGCCGCCACUCGCUACAGCCUAGUGAUGUUAGGAACGUGUUA,87.2,73.1,81.8,87.3,54.7
CGUUUAGUGAUGUUAAGCGUCCACUACGAUACCAGAACUAUAACCUUCCCUUGGCAGCGUUUAUAUUGUAACUCAUGUGUUAAUU [theeternabot_exclusion_KL_Theo_A_11],520,296,474,503,468
CGUUUAUAGCAGGAUACCAGUACCCAUAAAGUACGUUAAUAGUAGAGUGAUGUUCUAAAGUACCCUUGGCAGCUUCCAGUGAGUG [ExTheophylB.S],102,157,142,165,85.3
CGUUUAUAGCAGGAUACCAGUACCCAUAAAGUACGUUAAUAGUAGAGUGAUGUUCUAAAGUACCCUUGGCAGCUUCCCGUGACCC [ExTheophylB.W],103,160,133,182,79.6
CUCACAGUGAUGUUGUGGGCCGAGAGUGAUACCAGCCGUAUUUGUGGCCCUUGGCAGCGCAAAAGCCGAGUGAUGUUCGAAUCGG [Same State Theophylline A GF 24],211,196,207,190,192
CUCGAGUGAUGUUCGAUUAUUUAUACAGAUACCAGUGAAUUUUAACACCCUUGGCAGCUGGUUGUAUCUUUGUAAUUUACACAAG [JR_ExcTheophyA_Sub005],120,168,113,151,93.6
CUCGUGGGUUUGAGAGGGCUUGUGGGAAGUGAGGAUAUUUAGGGAGAAAGAAGGCACUAUAGAAUAUAGUGAUGUUAUGUAAGGG [SSFMNA.O],466,954,492,180,348
CUGGGUUGACGAAAAGUCAACAAACGAGAAGGAGCGCACGAAAGUGCAGGUAGGUCGCUCAGUCCAGUGAUGUUGGAACAUCCAG [#SwitchBubble 8 #K4Late],664,498,462,508,436
CUGGGUUGACGAAAAGUCAACAAACGAGAAGGAGCGCACGAAAGUGCAGGUAGGUCGCUCAGUCCAGUGAUGUUGGAUCAUCCAG [#SwitchBubble 9 #K4Late],265,763,687,840,323
CUGGGUUGACGAAAAGUCAACAAAUGAGAAGGAGCGCACGAAAGUGCAGGUAGGUCGCUCAAUCCAGUGAUGUUGGGUCAUCCAG [#SwitchBubble 13 #K4Late],856,612,993,951,731
CUUGUACAUGCCGAGGUAGGUGCGGGUUAGCGAGGACCGGUACGGCCGCCACUCGCCAAGUGAUGUUUGGUCCUUUGGGUCGGCA,948,507,562,663,633
CUUUAUCAACCAGAUACCAGCGGUUCUCUAGUUGGCUUCCGUAGUGAUGUUGCGUGGUCCCGCCCUUGGCAGCUGGCCAUGACUA [theeternabot_sameState_KL_Theo_B_5],1060,684,1170,798,993
GAACGGCGGGCGGCCGCCACUGGUAUACGAGUGAUGUUCGGAUAUACGUGAUGUAAGGUAAUUAACAGGACCGGGUCAGGGCCGG [whbob_SS_Tryp_B_t20],278,208,239,294,238
GAAUUAUGUAGAAGGAGCGUUAGAAGGUAUAGGUGCGAGUGAUGUUUGGACUUGUUAAUUUGACAGGUAGGUCGCUACAGAAGGA [KL-SSArg B19 #analogue],496,281,499,379,451
GAAUUAUGUAGAAGGAGCGUUAGAAGGUAUAGGUGUGAGUGAUGUUCGGAUUUGUUAAUUUGACAGGUAGGUCGCUACAGAAGGA [KL-SSArg B17 #analogue],435,267,242,132,106
GACAUACCUAUGGAGGGCCGAUCGAUCAUACGAGGACCGGUACGGCCGCCACUCGUGGGCAGUGAUGUUGACCCUGGGAGGUAAG,316,223,252,232,483

# Source: the supplement of paper PMC9170038
